Test results published in article PMC9242648.

T1: human regulatory light chain (MYL2), P10916
T1 chain: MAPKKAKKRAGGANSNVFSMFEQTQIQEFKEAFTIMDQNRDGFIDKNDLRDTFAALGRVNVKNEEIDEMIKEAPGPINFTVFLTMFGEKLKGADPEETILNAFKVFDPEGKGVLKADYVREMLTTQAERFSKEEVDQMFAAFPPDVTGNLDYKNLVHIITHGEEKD


Experiments:
[1] = biological target: human essential light chain (MYL3), P08590; test: Coomassie SDS-PAGE gel-based light chain loading assay; conditions: chain shown with the change;; read off a plot
[2] = biological target: T1, human regulatory light chain (MYL2), …; test: as above; conditions: chain shown with the change;; read off a plot

Sequence of human essential light chain (MYL3), P08590 (P08590 whole entry): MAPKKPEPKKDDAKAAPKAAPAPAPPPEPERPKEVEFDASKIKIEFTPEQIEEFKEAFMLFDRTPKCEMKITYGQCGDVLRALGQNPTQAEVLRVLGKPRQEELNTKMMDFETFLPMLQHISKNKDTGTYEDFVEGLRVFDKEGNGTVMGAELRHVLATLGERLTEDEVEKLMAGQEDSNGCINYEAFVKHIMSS

Row | ratio to parent [1] | ratio to parent [2] | Binder
1 | 0.96 | 0.97 | human β-cardiac myosin 2-hep heavy chain, wild type A797T (protein) MGDSEMAVFGAAAPYLRKSEKERLEAQTRPFDLKKDVFVPDDKQEFVKAKIVSREGGKVTAETEYGKTVTVKEDQVMQQNPPKFDKIEDMAMLTFLHEPAVLYNLKDRYGSWMIYTYSGLFCVTVNPYKWLPVYTPEVVAAYRGKKRSEAPPHIFSISDNAYQYMLTDRENQSILITGESGAGKTVNTKRVIQYFAVIAAIGDRSKKDQSPGKGTLEDQIIQANPALEAFGNAKTVRNDNSSRFGKFIRIHFGATGKLASADIETYLLEKSRVIFQLKAERDYHIFYQILSNKKPELLDMLLITNNPYDYAFISQGETTVASIDDAEELMATDNAFDVLGFTSEEKNSMYKLTGAIMHFGNMKFKLKQREEQAEPDGTEEADKSAYLMGLNSADLLKGLCHPRVKVGNEYVTKGQNVQQVIYATGALAKAVYERMFNWMVTRINATLETKQPRQYFIGVLDIAGFEIFDFNSFEQLCINFTNEKLQQFFNHHMFVLEQEEYKKEGIEWTFIDFGMDLQACIDLIEKPMGIMSILEEECMFPKATDMTFKAKLFDNHLGKSANFQKPRNIKGKPEAHFSLIHYAGIVDYNIIGWLQKNKDPLNETVVGLYQKSSLKLLSTLFANYAGADAPIEKGKGKAKKGSSFQTVSALHRENLNKLMTNLRSTHPHFVRCIIPNETKSPGVMDNPLVMHQLRCNGVLEGIRICRKGFPNRILYGDFRQRYRILNPAAIPEGQFIDSRKGAEKLLSSLDIDHNQYKFGHTKVFFKAGLLGLLEEMRDERLSRIITRIQAQSRGVLTRMEYKKLLERRDSLLVIQWNIRAFMGVKNWPWMKLYFKIKPLLKSAEREKEMASMKEELEDKVEELLSKNYHLENEVARL
2 | 1.1 | 1.2 | human β-cardiac myosin 2-hep heavy chain, wild type S782N (protein) MGDSEMAVFGAAAPYLRKSEKERLEAQTRPFDLKKDVFVPDDKQEFVKAKIVSREGGKVTAETEYGKTVTVKEDQVMQQNPPKFDKIEDMAMLTFLHEPAVLYNLKDRYGSWMIYTYSGLFCVTVNPYKWLPVYTPEVVAAYRGKKRSEAPPHIFSISDNAYQYMLTDRENQSILITGESGAGKTVNTKRVIQYFAVIAAIGDRSKKDQSPGKGTLEDQIIQANPALEAFGNAKTVRNDNSSRFGKFIRIHFGATGKLASADIETYLLEKSRVIFQLKAERDYHIFYQILSNKKPELLDMLLITNNPYDYAFISQGETTVASIDDAEELMATDNAFDVLGFTSEEKNSMYKLTGAIMHFGNMKFKLKQREEQAEPDGTEEADKSAYLMGLNSADLLKGLCHPRVKVGNEYVTKGQNVQQVIYATGALAKAVYERMFNWMVTRINATLETKQPRQYFIGVLDIAGFEIFDFNSFEQLCINFTNEKLQQFFNHHMFVLEQEEYKKEGIEWTFIDFGMDLQACIDLIEKPMGIMSILEEECMFPKATDMTFKAKLFDNHLGKSANFQKPRNIKGKPEAHFSLIHYAGIVDYNIIGWLQKNKDPLNETVVGLYQKSSLKLLSTLFANYAGADAPIEKGKGKAKKGSSFQTVSALHRENLNKLMTNLRSTHPHFVRCIIPNETKSPGVMDNPLVMHQLRCNGVLEGIRICRKGFPNRILYGDFRQRYRILNPAAIPEGQFIDSRKGAEKLLSSLDIDHNQYKFGHTKVFFKAGLLGLLEEMRDERLNRIITRIQAQSRGVLARMEYKKLLERRDSLLVIQWNIRAFMGVKNWPWMKLYFKIKPLLKSAEREKEMASMKEELEDKVEELLSKNYHLENEVARL
3 | 1 | 1.1 | human β-cardiac myosin 2-hep heavy chain, wild type F834L (protein) MGDSEMAVFGAAAPYLRKSEKERLEAQTRPFDLKKDVFVPDDKQEFVKAKIVSREGGKVTAETEYGKTVTVKEDQVMQQNPPKFDKIEDMAMLTFLHEPAVLYNLKDRYGSWMIYTYSGLFCVTVNPYKWLPVYTPEVVAAYRGKKRSEAPPHIFSISDNAYQYMLTDRENQSILITGESGAGKTVNTKRVIQYFAVIAAIGDRSKKDQSPGKGTLEDQIIQANPALEAFGNAKTVRNDNSSRFGKFIRIHFGATGKLASADIETYLLEKSRVIFQLKAERDYHIFYQILSNKKPELLDMLLITNNPYDYAFISQGETTVASIDDAEELMATDNAFDVLGFTSEEKNSMYKLTGAIMHFGNMKFKLKQREEQAEPDGTEEADKSAYLMGLNSADLLKGLCHPRVKVGNEYVTKGQNVQQVIYATGALAKAVYERMFNWMVTRINATLETKQPRQYFIGVLDIAGFEIFDFNSFEQLCINFTNEKLQQFFNHHMFVLEQEEYKKEGIEWTFIDFGMDLQACIDLIEKPMGIMSILEEECMFPKATDMTFKAKLFDNHLGKSANFQKPRNIKGKPEAHFSLIHYAGIVDYNIIGWLQKNKDPLNETVVGLYQKSSLKLLSTLFANYAGADAPIEKGKGKAKKGSSFQTVSALHRENLNKLMTNLRSTHPHFVRCIIPNETKSPGVMDNPLVMHQLRCNGVLEGIRICRKGFPNRILYGDFRQRYRILNPAAIPEGQFIDSRKGAEKLLSSLDIDHNQYKFGHTKVFFKAGLLGLLEEMRDERLSRIITRIQAQSRGVLARMEYKKLLERRDSLLVIQWNIRAFMGVKNWPWMKLYLKIKPLLKSAEREKEMASMKEELEDKVEELLSKNYHLENEVARL
